Target: the molecule itself
Assay: NMR titration

B1: TDP-43 C-terminal domain (CTD), wild type (domain or fragment, human, UniProt Q13148 267-414, looked up)
chain: NRQLERSGRFGGNPGGFGNQGGFGNSRGGGAGLGNNQGSNMGGGMNFGAFSINPAMMAAAQAALQSSWGMMGMLASQQNQSGPSGNNQNQGNMQREPNQAFGSGNNSYSGSNSGAAIGWGSASNAGSGSGFNGGFGSSMDSKSSGWGM
binding result: binds

Source: doi:10.1101/2022.11.10.516004 (bioRxiv, 2022)
